The record followed here is publication PMC11172336, “Exploring Syndecan-4 and MLP and Their Interaction in Primary Cardiomyocytes and H9c2 Cells” (Cells, 2024).

Positions count from the first letter of the chain named. Several values for one entry are separate records, joined by “and”; a condition that tells them apart may be missing. Identical values can stand only once. Where no end group is shown, it is not given here. The star is where a group is joined. Biotin = O=C1N[C@H]2[C@H](CS[C@H]2CCCCC(=O)*)N1

The chains are these.
B1: biotinylated MLP-WT peptide aa 50-79 (peptide, UniProt P50461 50-79, looked up)
peptide: Biotin-AAHESEIYCKVCYGRRYGPKGIGYGQGAGC
modifications: cysteine pairing not given here
notes: Muscle LIM Protein (MLP, CSRP3), human, 30-mer, residues 50-79, covering the end of LIM1 and the NLS; also called MLP peptide aa 50–79; source: synthetic peptide (GenScript, >80% purity)
B2: biotinylated MLP-WT peptide aa 125-154 (peptide)
peptide: not shown
modifications: N-terminal biotin tag
notes: source: synthetic peptide (GenScript, >80% purity)
B3: MLP, endogenous in adult rat primary cardiomyocytes (natural protein, UniProt P50463 1-194, looked up)
chain: MPNWGGGAKCGACDKTVYHAEEIQCNGRSFHKTCFHCMACRKALDSTTVAAHESEIYCKVCYGRKYGPKGIGFGQGAGCLSTDTGEHLGLQFQQSPKPARAATTSNPSKFSAKFGESEKCPRCGKSVYAAEKVMGGGKPWHKTCFPCAICGKSLESTNVTDKDGELYCKVCYAKNFGPTGIGFGGLTHQVEKKE
notes: Muscle LIM Protein (MLP, CSRP3), rat; source: endogenous, enriched subcellular fractions of freshly isolated adult rat LV cardiomyocytes
B4: recombinant 6xHis-MLP R64C (natural protein, human, UniProt P50461 1-194, looked up)
chain: B3 chain with D14E, R64C, K65R, F73Y, A101S, A102V, S111T, P146R, H188Q
notes: Muscle LIM Protein (MLP, CSRP3), human, with a patient mutation; source: bought: GenScript (recombinant protein, >80% purity); not shown: His6, N-terminal, kept
B5: recombinant 6xHis-MLP K69R (natural protein, human, UniProt P50461 1-194, looked up)
chain: B3 chain with D14E, K65R, K69R, F73Y, A101S, A102V, S111T, P146R, H188Q
notes: as for B4
B6: recombinant 6xHis-MLP C58G (natural protein, human, UniProt P50461 1-194, looked up)
chain: B3 chain with D14E, C58G, K65R, F73Y, A101S, A102V, S111T, P146R, H188Q
notes: as for B4
B7: recombinant 6xHis-MLP G72R (natural protein, human, UniProt P50461 1-194, looked up)
chain: B3 chain with D14E, K65R, G72R, F73Y, A101S, A102V, S111T, P146R, H188Q
notes: as for B4
B8: recombinant 6xHis-MLP-WT (natural protein, human, UniProt P50461 1-194, looked up)
chain: B3 chain with D14E, K65R, F73Y, A101S, A102V, S111T, P146R, H188Q
notes: Muscle LIM Protein (MLP), encoded by CSRP3, human, 194 amino acids; on the native blot a mixture of monomer, dimer, trimer and tetramer; also called full-length recombinant 6xHis-MLP-WT protein; Muscle LIM Protein; source: bought: GenScript (recombinant protein, >80% purity); not shown: His6, N-terminal, kept
B9: recombinant 6xHis-MLP L44P (natural protein, human, UniProt P50461 1-194, looked up)
chain: B3 chain with D14E, L44P, K65R, F73Y, A101S, A102V, S111T, P146R, H188Q
notes: as for B4
B10: recombinant 6xHis-MLP Y66C (natural protein, human, UniProt P50461 1-194, looked up)
chain: B3 chain with D14E, K65R, Y66C, F73Y, A101S, A102V, S111T, P146R, H188Q
notes: as for B4
B11: recombinant 6xHis-MLP Q91L (natural protein, human, UniProt P50461 1-194, looked up)
chain: B3 chain with D14E, K65R, F73Y, Q91L, A101S, A102V, S111T, P146R, H188Q
notes: as for B4
B12: recombinant 6xHis-MLP W4R (natural protein, human, UniProt P50461 1-194, looked up)
chain: B3 chain with W4R, D14E, K65R, F73Y, A101S, A102V, S111T, P146R, H188Q
notes: Muscle LIM Protein (MLP, CSRP3), human, with a patient mutation; the eight mutated recombinant proteins are named in the abstract; source: bought: GenScript (recombinant protein, >80% purity); not shown: His6, N-terminal, kept

In data set [1] the target is B6. Nature of the data set: ELISA; wells coated with 10 µg of WT or mutated full-length 6xHis-MLP recombinant protein in PBS; biotinylated overlapping MLP-WT 30-mer peptides at 2–5 µM for two hours at 37 °C; signal of PBS-coated wells subtracted. The settings on record: both partners purified. For orientation: In an ELISA, binding on a coated surface is turned into a signal by an enzyme label.

The target of the data set “recombinant 6xHis-MLP-WT” is B8. The description is as above. The settings on record: both partners purified.
The target in data set [2] is B9. Described as above. The settings on record: both partners purified.
Data set [3] deals with the molecule itself. Nature of the data set: immunoblotting under native conditions; 20 µg of cytoplasmic-, nuclear-, membrane- and cytoskeletal-enriched fractions of adult rat cardiomyocytes in native sample buffer, not boiled, SDS-containing running buffer; blot with C-terminal anti-MLP (#R06991).
Data set [4] deals with the molecule itself. Nature of the data set: immunoblotting under native conditions; 0.5 µg of recombinant 6xHis-MLP WT or mutated protein in native sample buffer, not boiled, SDS-containing running buffer; blot with C-terminal anti-MLP (#R06991); densitometry.

B1: the binding result (in data set [1]; with recombinant 6xHis-MLP-WT) was “binds” each time. With B2, the binding result (in data set [1]; in data set [2]; with recombinant 6xHis-MLP-WT) was “binds” each time. With B3, in data set [3], the “stoichiometry N” value is 2 and 3 and 4.

In the case of B4, the binding result in data set [4] is “binds”.

For B5, the binding result in data set [4] is listed as “binds”. Regarding B6, the binding result in data set [4] is listed as “binds”. B7: the binding result in data set [4] was “binds”. On to B8, for which the “stoichiometry N” value in data set [4] is 2 and 3 and 4. With B9, the binding result in data set [4] was “binds”.

Regarding B10, in data set [4], the binding result was “binds”. On the same count and under the same terms, the result for B11 reads “binds”.

As to B12, in data set [4], the binding result is “binds”.

By stoichiometry N is commonly meant a count of units in the complex or per binding partner.
